Blank lines part the entries; values can stand above or below the substance they belong to. Where no end group is shown, it is not given here.
Assays:
Type in all cases: cell-based
human PTH-1 receptor = target: T1, human PTH-1 receptor (Homo sapiens, UniProt Q03431); assay: cAMP-stimulating activity in HKRK-B7 cells (LLC-PK1 stably transfected with human PTH-1 receptor), RIA; conditions: HKRK-B7 cells
T1 construct: expressed in transfected cells; host or cells: HKRK-B7 (LLC-PK1 stably transfected, pCDNA-1-based plasmid)
T1 sequence (Q03431 27-593): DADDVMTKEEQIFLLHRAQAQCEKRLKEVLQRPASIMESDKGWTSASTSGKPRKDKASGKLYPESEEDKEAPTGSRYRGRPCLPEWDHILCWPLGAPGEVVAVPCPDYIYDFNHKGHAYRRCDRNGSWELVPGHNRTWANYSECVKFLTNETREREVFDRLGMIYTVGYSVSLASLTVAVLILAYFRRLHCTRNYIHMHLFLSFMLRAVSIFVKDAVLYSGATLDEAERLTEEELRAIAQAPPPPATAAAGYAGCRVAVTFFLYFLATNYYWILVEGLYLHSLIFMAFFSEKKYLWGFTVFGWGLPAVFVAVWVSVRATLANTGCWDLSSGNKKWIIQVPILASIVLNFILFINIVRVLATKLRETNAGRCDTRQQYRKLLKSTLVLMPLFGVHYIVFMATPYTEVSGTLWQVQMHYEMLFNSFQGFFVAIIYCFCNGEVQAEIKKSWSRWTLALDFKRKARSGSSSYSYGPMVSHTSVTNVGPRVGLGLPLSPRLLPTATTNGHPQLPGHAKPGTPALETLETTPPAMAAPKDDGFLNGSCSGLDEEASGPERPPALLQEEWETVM
Description: FIG. 2. cAMP-stimulating Activity of PTH Fragments in LLC-PK1 Cells. A) Rat PTH(1–34) analog or amino-terminal rPTH fragments were tested for cAMP-stimulating activity in an LLC-P1-derived cell line (HKRK-B7) stably transfected with the human PTH-1 receptor. Cells were treated with peptide at the indicated doses for 60 min at 22° C. Intracellular cAMP was measured by RIA, as described in Experimental Procedures. Shown are combined data (mean±s.e.m.) from 3 separate experiments, each performed in duplicate. B) HKRK-B7 cells, or untransfected LLC-PK1 were treated with rPTH(1–34) or rPTH(1–14), and intracellular cAMP was measured. Shown are data (mean±s.e.m.) from a single representative experiment performed in duplicate.
FIG. 3. Alanine-scan of PTH(1–14). HKRK-B7 cells were treated with 100 mM of one of 14 different rPTH(1–14) analogs, each having a different alanine-substitution at the indicated amino acid position. The resulting cAMP levels were determined as described in Experimental Procedures. Shown are the combined data (mean±s.e.m.) from three separate experiments, each performed in duplicate. The mean (mean±s.e.m.) basal cAMP levels observed in the three experiments was 2.1±0.1 pmole/well, and the maximum response to rPTH(1–34) at 0.1 mM was 254±16 pmole/well.
Cell Culture and DNA Transfection: COS-7 and HKRK-B7 cells were cultured at 37° C. in Dulbecco's modified Eagle's medium (DMEM) supplemented with fetal bovine serum (10%); penicillin G (20 units/ml), streptomycin sulfate (20 μg/ml) and amphotericin B (0.05 μg/ml) in a humidified atmosphere containing 5% CO2. Twenty-four to 16 hours prior to assay, cells in 24-well plates were shifted to a humidified incubator containing 5% CO2 that was set at 33° C. Stock solutions of EGTA/trypsin and antibiotics were from GIBCO; fetal bovine serum was from Hyclone Laboratories (Logan, Utah). Derivation and characterization of the HKRK-B7 cell line by stable transfection of LLC-PK1 cells with a pCDNA-1-based plasmid (In Vitrogen, San Diego, Calif.) encoding the hPTH-1 receptor was described previously (Takasu, H. and Bringhurst, F., Endocrinology, in press (1998)). These cells express PTH-1 receptors at a surface density of about 1×10^6 PTH-binding sites per cell. The HKRK-B7 cells were used for functional assays 24 to 72 hours after the cell monolayer reached confluency.
(§1) Intracellular cyclic AMP: Transfected COS-7 or HKRK-B7 cells were rinsed with 500 ml of binding buffer, (50 mM Tris-HCl, pH 7.7, 100 mM NaCl, 5 mM KCl, 2 mM CaC12, 5% heat-inactivated horse serum, 0.5% heat-inactivated fetal bovine serum) and 200 ml of IBMX buffer (DMEM containing 2 mM IBMX, 1 mg/ml bovine serum albumin, 35 mM Hepes-NaOH, pH 7.4) and […] of binding buffer or binding buffer containing various amounts of peptide were added. The plates were incubated for 60 minutes at room temperature. The buffer was then withdrawn and the cells were frozen on dry ice, treated with 0.5 ml of 50 mM HCl, and refrozen. After the thawing, the lysate was diluted 30-fold in dH20 and an aliquot was analyzed for cAMP content by determined radioimmunoassay using unlabeled cAMP as a standard.
Amino-terminal peptide fragments based on the rat PTH sequence and ranging in length from PTH(1–9) to PTH(1–15) were synthesized and tested for activity in an LLC-PK1-derived cell line called HKRK-B7 which stably expresses high levels (1×10^6 receptors/cell) of the cloned human PTH-1 receptor (Takasu, H. and Bringhurst, F., Endocrinology, in press (1998)).

[1] = target: T2, truncated rat PTH-1 receptor (rΔNt) (Rattus norvegicus, UniProt P25961, E586G); assay: cAMP response in COS-7 cells transiently transfected with truncated rat PTH-1 receptor (rΔNt); conditions: secretin(1–27) 1 mM
T2 construct: contains an open reading frame encoding a protein of about 435 amino acid residues; expressed in transfected cells; host or cells: COS-7, transient (DEAE-dextran), pCDNA-1 based plasmid
T2 sequence (P25961 with tags, fused parts or gaps E586G): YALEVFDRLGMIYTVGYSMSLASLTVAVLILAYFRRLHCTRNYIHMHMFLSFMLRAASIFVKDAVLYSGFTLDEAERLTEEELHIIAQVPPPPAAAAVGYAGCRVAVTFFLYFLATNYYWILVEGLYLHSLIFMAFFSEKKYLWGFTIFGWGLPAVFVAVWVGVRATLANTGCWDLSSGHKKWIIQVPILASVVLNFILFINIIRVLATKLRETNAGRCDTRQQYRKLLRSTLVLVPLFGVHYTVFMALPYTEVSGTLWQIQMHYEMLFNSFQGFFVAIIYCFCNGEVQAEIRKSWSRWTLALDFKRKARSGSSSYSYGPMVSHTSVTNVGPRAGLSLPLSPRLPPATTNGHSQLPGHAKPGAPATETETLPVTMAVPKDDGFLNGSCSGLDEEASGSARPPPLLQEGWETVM
Description: FIG. 4. PTH Responses of Intact and Truncated PTH-1 Receptors in COS-7 Cells. Shown at the top are schematics of the intact (A) and truncated (B) rat PTH-1 receptors used for transient transfection of COS-7 cells, and subsequent cAMP response assays. The conserved extracellular cysteine residues are depicted as open circles and numbered according to sequence position, and the nine amino acids of the epitope tag (HA) in rWT-HA are shaded. The tics at residue 26 and 181 indicate the endpoints of the deletion in rΔNt. Based on the predicted signal peptide cleavage site at Ala-22, residues 23–25 in rΔNt are joined to residue 182. The cAMP responses of COS-7 cells expressing the intact receptor (C) and rΔNt (D) to rPTH(1–34) (J) or rPTH(1–14) (C) are also shown. The graphs show combined data (mean±s.e.m.) from five separate experiments, each performed in duplicate. […]
FIG. 6. Specificity of the Truncated Ligand and PTH Receptor. COS-7 cells transiently transfected with either rWT-HA (A), rΔNt (B), or the intact rat secretin receptor (C), were treated with the indicated peptides for 60 min at 22° C., and the resulting intracellular cAMP levels were quantified by RIA. Concentration of peptides present during the incubations were: rPTH(1–34), 0.1 mM; rPTH(1–14) 100 mM; secretin(1–27). […] Shown are data (mean±s.e.m.) from one experiment performed in duplicate, and this was repeated twice more with equivalent results.
For studies with the intact and truncated rat PTH-1 receptors, transient transfections of COS-7 cells were performed using DEAE-dextran as described previously (Bergwitz, C., et al., J. Biol. Chem. 272:28861–28868)). The construction and initial characterization of the pCDNA-1 based plasmids encodin either the intact or truncated rat PTH-1 receptor has been described previously (Lee, C., et al., Endocrinology 135(4):1488–1495)). […] The truncated rat PTH-1 receptor (rΔNt) is deleted for exons E1 through exon G (residues 26 to 181). Assuming that signal peptidase cleavage occurs between Ala-22 and Tyr-23 (Nielsen, H., et al., Protein Engineering 10:1–6 (1997)), rΔNt is predicted to have for its N-terminus residues Dautzenberg, F., et al., Proc. Natl. Acad. Sci. 95:4941–4946 (1998); Holtmann, M., et al., J. Biol. Chem. 270:14394–14398 (1995); DeAlmeida, V. and Mayo, K., Mol. Endo. 12:750–765 (1998)) joined to Glu-182 (FIG. 3B). COS-7 cells were transfected in 24-well plates when the cells were 85 to 95% of confluency, using 200 ng of plasmid DNA that was purified by cesium chloride/ethidium bromide gradient centrifugation for each well. Assays were conducted 72 to 96 hours after transfection. Under these conditions about ˜20% of the COS-7 cells become transfected and express about 5×10^6 surface PTH receptors per cell (Bergwitz, C., et al., J. Biol. Chem. 272:28861–28868)).
as §1
Experiments utilized COS-7 cells transfected with either the intact rat PTH-1 receptor (rWT-HA, FIG. 4A) or a truncated rat PTH-1 receptor with most of the amino-terminal extracellular domain deleted (rΔNt, FIG. 4B).

rat secretin receptor = target: T3, rat secretin receptor (Rattus norvegicus, UniProt P23811); assay: cAMP response in COS-7 cells transfected with the rat secretin receptor; conditions: secretin(1–27) 1 mM; COS-7 cells transfected with the secretin receptor
T3 construct: expressed in transfected cells; host or cells: COS-7, transient
T3 sequence (P23811 26-449): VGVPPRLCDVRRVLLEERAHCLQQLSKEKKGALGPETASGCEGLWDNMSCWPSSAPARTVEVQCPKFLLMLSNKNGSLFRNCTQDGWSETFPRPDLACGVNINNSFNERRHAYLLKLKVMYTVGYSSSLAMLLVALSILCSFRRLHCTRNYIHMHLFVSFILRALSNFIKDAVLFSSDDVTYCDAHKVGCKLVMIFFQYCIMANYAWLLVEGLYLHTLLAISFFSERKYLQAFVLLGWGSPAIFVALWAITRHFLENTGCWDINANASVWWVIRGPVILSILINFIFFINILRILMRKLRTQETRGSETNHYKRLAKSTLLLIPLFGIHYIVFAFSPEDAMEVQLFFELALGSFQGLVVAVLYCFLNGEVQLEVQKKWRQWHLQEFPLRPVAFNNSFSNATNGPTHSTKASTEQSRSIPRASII
Description: FIG. 6. Specificity of the Truncated Ligand and PTH Receptor. COS-7 cells transiently transfected with either rWT-HA (A), rΔNt (B), or the intact rat secretin receptor (C), were treated with the indicated peptides for 60 min at 22° C., and the resulting intracellular cAMP levels were quantified by RIA. […] 1 mM and secretin(1–13), 100 mM. Shown are data (mean±s.e.m.) from one experiment performed in duplicate, and this was repeated twice more with equivalent results.
as §1
In order to test whether PTH(1–14) and rΔNt retained the appropriate recognition specificity for the corresponding parent ligand, cross-reactivity experiments were done using secretin ligands and the cloned rat secretin receptor. […] Cells expressing rΔNt responded to PTH(1–34) and PTH(1–14) but not to secretin(1–27) (1 mM) or secretin(1–13) ([…]) (FIG. 5B). Thus, the recognition specificity of PTH(1–14) and rΔNt appear to replicate that of the intact parent molecules. No evidence for relaxed specificity was detected in these studies (FIG. 6).

increase in cAMP accumulation (in words) (human PTH-1 receptor): little or no increase
Substance: PH(1–13): Amino-terminal peptide fragment based on the rat PTH sequence, residues 1–13, C-terminally amidated (AVSEIQLMHNLGK-NH2)

doses required for cAMP activation compared with the dose required for PTH(1–34) (human PTH-1 receptor): five to six orders of magnitude higher
increase in intracellular cAMP levels relative to the basal cAMP level (human PTH-1 receptor; 60 min at 22° C.): about 20 fold
Substance: PTH(1–15): Amino-terminal peptide fragment based on the rat PTH sequence, residues 1–15, C-terminally amidated (AVSEIQLMHNLGKHL-NH2)

Substance: secretin(1–13): truncated secretin ligand used in cross-reactivity experiments (HSDGTFTSELSRL; not fully specified (C-terminus); ends and bridges not checked; UniProt P09683 28-40, looked up, fragment)
cAMP response of cells expressing rΔNt (in words) [1]: not

Substance: secretin(1–27): secretin ligand used in cross-reactivity experiments
cAMP response of cells expressing rΔNt (in words) [1]: not
increase in cAMP levels (rat secretin receptor): 50 fold
